Where a SMILES comes first, the peptide text is derived from it. [ ]: non-standard residue; d: D form. The star is where a group is joined. Dolaproine = CO[C@@H]([C@@H]1CCCN1)[C@@H](C)C(=O)O; Dil = CC[C@H](C)[C@H](NC)[C@@H](CC(=O)O)OC; X1 = C[C@@H](N*)[C@@H](O)c1ccccc1; NMeV = CN[C@H](C(=O)O)C(C)C
B1: YWO.49.B7: affinity matured anti-TAT226 antibody derived from YWO.49, reformatted as full-length IgG (antibody, V domains shown)
VH: EVQLVESGGGLVQPGGSLRLSCAASGFTITNYGIHWVRQAPGKGLEWVGRIYPDSGATYYADSVKGRFTISADTSKNTAYLQMNSLRAEDTAVYYCARKLWVSLAAMDYWGQGTLVTVSS
VL: DIQMTQSPSSLSASVGDRVTITCRASQDVSTAVAWYQQKPGKAPKLLIYSASFLYSGVPSRFSGSGSGTDFTLTISSLQPEDFATYYCQRSVFTPPAFGQGTKVEIKR
B2: YWO.49.H6: affinity matured anti-TAT226 antibody derived from YWO.49, reformatted as full-length IgG (antibody, V domains shown)
VH: EVQLVESGGGLVQPGGSLRLSCAASGFTITNYGIHWVRQAPGKGLEWVGRIYPDSGATYYADSVKGRFTISADTSKNTAYLQMNSLRAEDTAVYYCARKLWISIAGMDYWGQGTLVTVSS
VL: DIQMTQSPSSLSASVGDRVTITCRASQDVSTAVAWYQQKPGKAPKLLIYSASFLYSGVPSRFSGSGSGTDFTLTISSLQPEDFATYYCQHSYATPFTFGQGTKVEIKR
B3: YWO.49.C9: affinity matured anti-TAT226 antibody derived from YWO.49, reformatted as full-length IgG (antibody, V domains shown)
VH: EVQLVESGGGLVQPGGSLRLSCAASGFTITNYGIHWVRQAPGKGLEWVGRIYPDSGATYYADSVKGRFTISADTSKNTAYLQMNSLRAEDTAVYYCARKLWVTLASMDYWGQGTLVTVSS
VL: DIQMTQSPSSLSASVGDRVTITCRASQDVSTAVAWYQQKPGKAPKLLIYSASFLYSGVPSRFSGSGSGTDFTLTISSLQPEDFATYYCQKSYNTPPTFGQGTKVEIKR
B4: YWO.49.H2: affinity matured anti-TAT226 antibody derived from YWO.49, reformatted as full-length IgG (antibody, V domains shown)
VH: EVQLVESGGGLVQPGGSLRLSCAASGFTITNYGIHWVRQAPGKGLEWVGRIYPDSGATYYADSVKGRFTISADTSKNTAYLQMNSLRAEDTAVYYCARKLWVSLAPMDYWGQGTLVTVSS
VL: DIQMTQSPSSLSASVGDRVTITCRASQDVSTAVAWYQQKPGKAPKLLIYSASFLYSGVPSRFSGSGSGTDFTLTISSLQPEDFATYYCQQSYGTPFIFGQGTKVEIKR

Assays:
OVCAR3 cells = experiment: OVCAR3 in vitro cell killing assay (CellTiter-Glo); format: cell-based, human; conditions: 5 days of incubation
Protocol: YWO.49.H2 and YWO.49.H6 ADCs were tested for the ability to inhibit proliferation of OVCAR3 cells. OVCAR3 cells were seeded in 96-well plates in RPMI with 20% FBS. Anti-MUC16/CA25 antibody conjugated to MC-vc-PAB-MMAE was used as a positive control. MUC16/CA25 is a known ovarian cancer antigen. See, e.g., Yin et al. (2001) J. Biol. Chem. 276:27371-27375. Anti-IL-8 antibody conjugated to MC-vc-PAB-MMAE was used as a negative control. After 5 days of incubation, cell viability was measured using the CellTiter-Glo™ Luminescent Cell Viability Assay (Promega, Madison, Wis.) according to the manufacturer's instructions. The scale on the y-axis of FIG. 17 indicates the relative light units, or “RLUs,” from luciferase luminescence, which is a measure of cell viability.

HCT116#9-4 cells = experiment: In vitro cell killing assay using HCT116 transfected cells (CellTiter-Glo); format: cell-based, human; conditions: 3 days of incubation
Protocol: (§1) YWO.49.H2 and YWO.49.H6 ADCs were tested for the ability to inhibit proliferation of HCT116 cells, a colon cancer cell line, which had been stably transfected with nucleic acid encoding human TAT226. Untransfected HCT116 cells are normally about 5-6 fold less sensitive to free (unconjugated) MMAE than OVCAR3 cells.
Briefly, HCT116 cells were transfected as follows. Nucleic acid encoding epitope-tagged human TAT226 was constructed in the mammalian expression vector pcDNA3.1 (Invitrogen, Carlsbad, Calif.). The epitope tag consisted of amino acids 1-53 of the herpes simplex virus type 1 glycoprotein D (the “gD” tag), which replaced the signal sequence from amino acids 1-22 at the N-terminus of human TAT226. The recombinant vector was transfected into HCT116 cells using Lipofectamine200 (Invitrogen) according to the manufacturer's protocol. Transfected HCT116 cells were cultured in McCoy's 5a medium with 10% FBS and 0.4 mg/ml G418. Cells were stained using anti-gD antibodies and sorted by FACS to select for individual clones expressing recombinant gD:human TAT226 fusion protein. […]
To perform the cell killing assay, HCT116#9-4 cells were seeded in 96-well plates. […] After 3 days of incubation, cell viability was measured using the CellTiter-Glo™ Luminescent Cell Viability Assay (Promega, Madison, Wis.) according to the manufacturer's instructions.

[1] = tested on: Untransfected HCT116 cells; experiment: Sensitivity of untransfected HCT116 cells to free MMAE; format: cell-based, human; conditions: untransfected HCT116 cells versus OVCAR3 cells
Protocol: as §1

TAT226-His = target: T1, TAT226-His (Homo sapiens, UniProt Q8N2G4); experiment: Binding affinity for recombinant antigen by surface plasmon resonance (BIACORE 3000); conditions: immobilized antibody, TAT226-His 0.7 nM to 500 nM, 25° C., one-to-one Langmuir model; for kon/10^5: association rate; for koff/10^−4: dissociation rate
T1 construct: polyhistidine (C); made in house
T1 sequence (Q8N2G4 21-115): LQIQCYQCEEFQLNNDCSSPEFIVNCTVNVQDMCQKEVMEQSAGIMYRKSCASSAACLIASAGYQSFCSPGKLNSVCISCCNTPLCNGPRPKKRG
Protocol: The binding affinity of YWO.49, YWO.49.B7, YWO.49.C9, YWO.49.H2, and YWO.49.H6 for recombinant antigen was determined by surface plasmon resonance measurement using a BIACORE® 3000 system (Biacore, Inc., Piscataway, N.J.). Briefly, carboxymethylated dextran biosensor chips (CMS, Biacore Inc.) were activated with N-ethyl-N′-(3-dimethylaminopropyl)-carbodiimide hydrochloride (EDC) and N-hydroxysuccinimide (NHS) according to the supplier's instructions. Anti-TAT226 antibody was diluted to 5 ug/ml with 10 mM sodium acetate, pH 4.8, before injection at a flow rate of 5 ul/minute to achieve approximately 500 response units (RU) of coupled antibody. Next, 1M ethanolamine was injected to block unreacted groups. For kinetics measurements, two-fold serial dilutions of TAT226-His (0.7 nM to 500 nM) were injected in PBS with 0.05% Tween 20 at 25° C. at a flow rate of 25 μl/min. Association rates (kon) and dissociation rates (koff) were calculated using a simple one-to-one Langmuir binding model (BIAevaluation Software version 3.2). The equilibrium dissociation constant (Kd) was calculated as the ratio koff/kon.

[2] = target: T2, TAT226 expressed on the surface of OVCAR3 (Homo sapiens, UniProt Q8N2G4); experiment: FACS binding to TAT226 expressed on the surface of OVCAR3 cells; conditions: 5 μg/ml primary antibody, 1 hour on ice
T2 construct: TAT226 expressed on the surface of OVCAR3, a human ovarian cancer cell line; endogenous in cells; host or cells: OVCAR3
T2 sequence (Q8N2G4 21-117): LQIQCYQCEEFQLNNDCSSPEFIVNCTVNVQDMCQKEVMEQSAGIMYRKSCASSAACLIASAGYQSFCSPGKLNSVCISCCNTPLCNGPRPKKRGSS
Protocol: The ability of anti-TAT226 antibodies to bind to TAT226 expressed on the surface of OVCAR3, a human ovarian cancer cell line, was examined. Fluorescence-activated cell sorting (FACS) was performed on OVCAR3 cells in the absence and in the presence of YWO.49, YWO.49.B7, YWO.49.C9, YWO.49.H2, or YWO.49.H6. Briefly, detached cells were incubated with 5 μg/ml primary antibody for 1 hour on ice, washed, and incubated with secondary antibody (anti-human IgG conjugated to phycoerythrin) for 30 minutes on ice. FACS was performed using a FACScan™ flow cytometer (BD Biosciences, San Jose, Calif.).
The peaks on the left side of each graph represent “background” binding, i.e., binding of secondary antibody only. The peaks on the right side of each graph represent binding of the indicated anti-TAT226 antibody.

Molecule	IC50 (OVCAR3 cells) [nM]	IC50 (HCT116#9-4 cells) [nM]	fold less sensitive than OVCAR3 cells [1]	kon/10^5 (TAT226-His)	koff/10^−4 (TAT226-His)	binding to OVCAR3 cells by FACS [2]
CC[C@H](C)[C@@H]([C@@H](CC(=O)N1CCC[C@H]1[C@H](OC)[C@@H](C)C(=O)N[C@H](C)[C@@H](O)c1ccccc1)OC)N(C)C(=O)[C@@H](NC(=O)[C@@H](NC)C(C)C)C(C)C [free MMAE, mono-methyl auristatin E] (H-[NMeV]V[Dil][Dolaproine]-X1)	~0.1	~0.9	5-6 fold	–	–	–
B1	–	–	–	0.27	<0.05	did not bind significantly
B2	–	–	–	1.86	0.09	–
B3	–	–	–	1.53	<0.05	comparable to that observed for YWO.49.H2 and YWO.H6
B4	–	–	–	0.22	–	–

From patent US9675707B2, “Anti-TAT226 antibodies and immunoconjugates” (GENENTECH, INC., priority 2006, dated 2017)
